The record followed here is a protein production outcome set (Wang et al. 2014).

The data set is described as follows: label from the status in PepcDB records.
In the case of “MTTSKVTYQGDLRTSAIHLQSNNEIITDAPVDNQGKGEAFSPTDLLATSLASCMLTIIGIKARDMEIDIAGTTAEVTKVMAADPRRVSEVHIAITFNQELDDKTQKIFYNTALTCPVAKSIHPDIFQKVIIHSKSY”, the protein production entry is given as “not failed”.
In the case of “MSAKTNAEVVIDGKVYTLSGYENEEYLQKVAAYINNKIAEFDDMDEYKHLPGNMKSTLIELNIADDYFKAKALVEKLEGDIENKDKEIYDLKHDLISNQVKTENAEASMKELEAQNKELLLNKARLEATLEESLLDGKKPVKKSAHASKGANDSSDK” it was “failed”; in that of “MKQKDFFLYAVMSVFLGMQGCASSSDIKQNVGTSEIAHTKQTLQIAGLKHCNNEGNDSIHLNPDEPLTIIVHGCFSSAGRFETLADVYGLYDQQAICFEYDDRKSLEDTSGELVAALNQLSTQNPNQDLHVIGHSQGGLVARRALTSEREDQQTVTAKKVQLTTVSSPFNGIEISSHCGITPLRILSLGIVDLICYAVTGEKYQQIPPNADFIEQPGDLVASVSQHLVIKTDERNSCRKENDKGECIEDDYVFSVNEQSNNQVDDGVNTDLVTVKAGHVEIVGNGESVPTDLINILKQKEVLVDKSGVDEQKQGYLINQLYFD”, “failed”.
As for “MIGGSIISSNLLIRIFHGSCRKIIAFLFTILSLTLISGVLIYFVEGETGGFISRSSSVYWAITTLLTTGYGDTVLQTNFGRLVASVVKVLGFSIIVAPIVIIITEIYKSLSETSRKTKSLTISPFPLIWRYLNTQYFRML”, the protein production entry was “failed”.
As for “MYMKHIENGTRIEGEYIKNKVIQYNMSILTDEVKQPMEEVSLVVKNEEGKIFGGVTGTMYFYHLHIDFLWVDESVRHDGYGSQLLHEIEGIAKEKGCRLILLDSFSFQAPEFYKKHGYREYGVVEDHPKGHSQHFFEKRL”, the protein production result is recorded as “not failed”.
Regarding “PALPYAKSLAPVDLTDCSAQALETARQLGLLQRTKLIVMHVYDAAAAGMLNYAGVDKTSLDDYLVDTRTDAVRDLVRFLEPLRLDDVDYSTVVKEGAGPATDIIEAATELRPDLVVIGTHARRGAVRLLLSSVTEEVLRRLQRDILVVPVRDAGS”, the protein production result is reported as “failed”.
In the case of “MTFRGPSPPRFGHSMDLPAYAIEAEGLYKTYAGTKTSPEKRALNGIDLKIPRGSIFGLLGPNGAGKSTFINILAGLVRKSSGTVRIWGRDIDQRPRDARAAIGVVPQELAADVFFTPRESLEVQAGFYGVPKSERRTDELLNALGLGDKAGAYVRQLSGGMKRRLMVAKAMVHQPPVLILDEPTAGVDVELRRQLWQYVTSLNELGVTIVLTTHYLEEAQELCDEIAIINRGEVVACEPTAKLLSRMDSRNVVVTPESPVTAAPVLEGFDTKLRSGGAFSVSYRTGQSSVEQVLAAVRASGLHIKDIATEDPDLEDVFVALTYGDPNAADPTKDLEHHHHHH” it was “failed”.
In the case of “PGGPEEQWQRAIHERGEAVCPTCNVVTRKTLVGLKKHMEVCQKLQDALKCQHCRKQFKSKAGLNYHTMAEHSAKPSDAEASEGGE” it was “not failed”; in that of “MDDGQDAGRSGHRKAATAREGAEAMKPETPGGTAALAKGLTLLDMVADAPEPPRFAELLRASGLPKPTFARILRTLIAYGLVRQDEARGTYVLGQRFLEMSHKVWESFDLVSAATPELERLAAELGETVALCRLDGTMTQYLAERSPNGLSVRVEVGRRVPLHCTAPGKALLAFQDPAVGRALLDRLTLDLQTAKTITTLDALQADLTLTRARGYSISYEEHLPGVNSVAAPVMGRDNTPMGVLVALGPSSRLDSSNIHPAGRELIAAARRITGAAGAVAISSRPRPRSATGRPSAELSCILPWGAQLGESPVWHEGEDALYWVDILHPAVHRFDPATGRNETCETGKLVSAVIPVTGGRLLVASQDGVEWLDFASGRLTPFVSPEAGIADNRLNDAKCGPDGAIWVGSMRIDASKPTGALYRINANGASERKEGGIIVSNGLGWSPDGRTFYFVDTVPGLIHAYDCDPATGALSQRREFARIPVADGRPDGLAVDAEGGVWCAIWDGWCVRRYLPNGKLDQVIDMPVPRPSSIAFGGPDLSTLFITSARTRLPASTLADAPLSGGLFSCRPGISGARIAMFEG”, “failed”.
For “MASFPELPALRRLATLGRSWGLLSDFKYEQTRPDIFYGNLALDTSSLVAALSEDISGAGLNDLKVLDVGGGPGYFAEAFETLGATYFSVEPDVGEMSAAGIDVHGSVRGSGLDLPFLPDSFDVVYSSNVAEHVSAPWELGEEMLRVTRSGGLAILSYTIWLGPFGGHETGLWEHYVGGEFARDRYTKKHGHPPKNVFGESLFNVSCREGLEWGASVGNAELVAAFPRYHPYWVWWMVKVPVLREFAVSNLVLVFKKHLEHHHHHH”, the protein production entry was “failed”.
In the case of “MKYWMLLFALLWVSYGTGMARKTEKVVNNGIPWFDDRGEIVNAHGACIVEENGRYYLFGEYKSDKSNAFPGFSCYSSDDLVNWKFERVVLPMQSSGILGPDRVGERVKVMKCPSTGEYVMYMHADDMNYKDPHIGYATCSTIAGEYKLHGPLLYEGKPIRRWDMGTYQDTDGTGYLLLHGGIVYRLSKDYRTAEEKVVSGVGGSHGESPAMFKKDGTYFFLFSNLTSWEKNDNFYFTAPSVKGPWTRQGLFAPEGSLTYNSQTTFVFPLKCGEDTIPMFMGDRWSYPHQASAATYVWMPMQVDGTKLSIPEYWPSWDVDKLKPVNPLRKGKTVDLKKITFSKEADWKVEEGRISSNVKGSTLSIPFTGSCVAVMGETNCHSGYARMNILDKKGEKIYSSLVDFYSKANDHATRFKTPQLAEGEYTLVIEVTGISPTWTDKTKRIYGSDDCFVTITDIVKL” it was “failed”.
In the case of “MKEGKWFASANNQNKFLDPRERGNILNYLKVCLLLARAVRRMHAAGLCHSDLSYKNVLIDPEQGHACIIDVDGLVVPGKFPPDVVGTPDFIAPEVVKTSHLLKEDPQRILPNITTDRHALSVLIYMYLFYRHPLRGGKIHDMDDEVRDESLAMGERALFIEHPTDRSNAVKLNQVKPSSLPWADPQKVPYTIMGPYLTQLFEKAFIDGLHDPSKRPTADEWETALVKTVDLIQPCQNTACEQKWYVFSGKTKPVCPYCLEHHHHHH” it was “failed”.
In the case of “MFCEKAMELIRELHRAPEGQLPAFNEDGLRQVLEEMKALYEQNQSDVNEAKSGGRSDLIPTIKFRHCSLLRNRRCTVAYLYDRLLRIRALRWEYGSILPNALRFHMAAEEMEWFNNYKRSLATYMRSLGGDEGLDITQDMKPPKSLYIEVRCLKDYGEFEVDDGTSVLLKKNSQHFLPRWKCEQLIRQGVLEHILS” it was “failed”; in that of “MSENKKKFDKKGAKNMDEISKTLFAPIYPIIAENIINRFGITAGTCIDIGSGPGALSIALAKQSDFSIRALDFSKHMNEIALKNIADANLNDRIQIVQGDVHNIPIEDNYADLIVSRGSVFFWEDVATAFREIYRILKSGGKTYIGGGFGNKELRDSISAEMIRKNPDWKEFNRKNISQENVERFQNVLDEIGISSYEIILGDEGFWIIISKTDQEVI”, “not failed”.
In the case of “MCYAASKLWNVCNYERHHYKELGLEKYPDWYYQKKAHKGDLWYRQLPSQTAQETCKQLDKAWKSFYVLKKTGGIKEPNPPRFKQDNIPVTYMQMGIRHEKGSDQLRLSLPRDLKSYMEETYGIHEKFLYLENKIFRNMDHIKQLRIYPPENGTCELIVIYEIEEPEQLSQNGHYLSVDLGLHNLMTCYDSGNGRTFILGRKYLSLERYFHKEIARVQSVWYAQQSERGIKYPKSSKHIQRLYRKKQNAVKDYLHKTTRWIAEYCRKEDIRCVVVGDIRNIRKEKDMGHKTNQKFHGLPYNRLYIMLEYKLKLYGIQLIKQEESYTSQCSPLSPEVSKRHAEASNRKERGMYITDGVRFNADAVGAFNILRKHLSVSGKQKEMSVTGLKTPEIIKVAA”, the protein production result is recorded as “failed”.
Next, “MSTAVFLGFIVLSLYLALRSRKGTGSQSAHDFFVASRQFGAFLVFFLAAGEIYSVATMVGFAGGIYAKGPTYGIWFLGYILLAYPLGYFLAPKIWEAGQRFNAITLADLFKGHFDNRAVEFVVALSSILFLLPMAQLQFTGLIAAFRGLGWSFQPLHLVLIAAVLAFTYIAISGVRSSAYVAVLKDVLMVVAIVVTGLAVAGEVGVAKVFHVASEHVSNRMNDEQLRFSMSTILFQSLGFYMMPISVQFIYTAKSADTIRRTQVAMPLYMLMYPFLVLASYYALTRSDTLATANEAFFVAATHLLPSWLLGLVAAAAALSGLLVLTGMCLAIGPIVTRNLLPHLPESRQKAGAKGVIVVYLIVSILMTLMAPNLMLTLINTTYYGVTQFLPGMIVILFSLRVRPSAVVLGILTGQLMAVVLYLEKVDLGGINLGLPCLAANVVVMVVLNLLRTPKGLQATA”: “failed”; “GKFGFNDAVGHPKTLKGAAYGRFANSFNLANNKISMDPDGNWMNKIYNEAELAEMDGLNYNWLDEAWSGAFTMNHSVNVSGGSEKATYFAGASYYTQGANLGKQDYNRWNFRAGVDIKLTSDLKFSATIAGNQQETTSSFTKGLSNLNGYGGTKPGESGDYLVLAHMPNYLPWEITLDDGNTYYTSPLLNSYSSAGNATSGNKMSTWNYFAMENNDGSYSTNDNFSYDANFSVTYAVPFIKGLSFKGSYALKRSASDSEQAFMPFTLAYLKASDALTPGNRFYSDHPSVSDYQLKEFTGSTRVVYSDQMAKNEQLNFYVNYEGKFGKHSIAAMAAVEKMQAYMHSKRMLFNNPDPDGYLGTSPSAGAMDTGNSITYKYKQGSLSYLGRVSYNYADKYLFQFLFRSDASTKFAPANYWGFFPGVSVGWVASEEEFMKKLLPSWFEYMKVRFSWGRTGKDNIKAWGWKQLYSLDPSRGYGFGSNGGILQTGIKPGATPNPDAHWDNTDKFNLGFDLRFLNNRLSATVDVYYDINSDILNQNIGGIIGTPIFAGGALTEVNFGRIDAFGSEFSLNWRDKIDQVKYNIGVNFGFNGNRVREWPQSAPSYIQENSVREGASTIFPTYGYKVWRGTSSGDGILRNSDDIENYWNYLSANAEAAGTSPEYLGVKDASQLKPGMLAYQDLGGVLNEDGTQSGPDGRIAKTQDYAKLNKSGKTYGFTTKLGAEWKGISFNMMIATSWGGYRQIDVNKITTSSGDMLWTPDSFWEDMFDERNNTTGKYPNLGLDNRISGSVIAPSDFWSISTFRCYIRNLSIGYTLPKAWLSPLKIQSAKLSLTGNNLW”: “failed”.
As for “MSLDRIRLASLHDKVISADAAAAFIQDGMTVGMSGFTRAGEAKAVPQALVERAKQNPLKITLITGASLGNDLDKQLTEAGVLARRLPFQVDNTLRRAINNGEVMFIDQHLSETVEQMRNLQLKRPDVAVIEAIAITEDGGIIPTTSVGNSASFAIFAEKVIVEINTSLSEAFEGLHDIYIPSYRPTRQPIPLTKVDERIGTTAIQIDPAKIVGIVFNDTADSPSTVTLPDDETQGIANHLIAFFEKEVAEGRLPQNLGPLQAGIGSIANAVLTGLKDSNFEDLVMYSEVLQDCTFELIDAGKMKFASGSSITLSAKCGEKVFGNIEAYKDKLVLRPQEISNHPELVRRLGIIGINTALEFDIYGNVNSTHVCGTKMMNGIGGSGDFARNAHLAIFVTKSIAKGGDISSIVPMVSHVDHSEHDVDILVTEQGLADLRGLAPRERARAVIDHCVHPLYKDALNDYFSRASAKGGHTPHLLREALSWHVNFEENGHMLAIEPEAKSA”, the protein production result is recorded as “failed”.
Next, “MYNPVGVAAIGLGRWAYVMADAYTKSEKLKLVTCYSRTEDKREKFGKRYNCAGDATMEALLAREDVEMVIITVPNDKHAEVIEQCARSGKHIYVEKPISVSLDHAQRIDQVIKETGVKFLCGHSSRRLGALRKMKEMIDTKEIGEVSSIEAVFSNERGLELKKGNWRGEPATAPGGPLTQLGVHQIDNLQFLLGPVARVFNFGKPMYTEVENITVNQTLLEFEDGKQAYLGTNWACPGVFSINVYGTKANLFYQLDFSWWSNSDVTDEHSTLIKREFASMSDDPDNRILRDVKVDFESVDHLRVEVEEVADVIRNGGETEIGAEASLRNLAVVLAAVKSVHEKRPVEIAEIIG”: “not failed”.
